B1: MYC-tagged human wild-type ZP3 [human] / HA-tagged wild-type human ZP1 [human] (parent)
chain 1: QPLWLLQGGASHPETSVQPVLVECQEATLMVMVSKDLFGTGKLIRAADLTLGPEACEPLVSMDTEDVVRFEVGLHECGNSMQVTDDALVYSTFLLHDPRPVGNLSIVRTNRAEIPIECRYPRQGNVSSQAILPTWLPFRTTVFSEEKLTFSLRLMEENWNAEKRSPTFHLGDAAHLQAEIHTGSHVPLRLFVDHCVATPTPDQNASPYHTIVDFHGCLVDGLTDASSAFKVPRPGPDTLQFTVDVFHFANDSRNMIYITCHLKVTLAEQDPDELNKACSFSKPSNSWFPVEGSADICQCCNKGDCGTPSHSRRQPHVMSQWSRSASRN
chain 2: RWLQPDPGLPGLRHSYDCGIKGMQLLVFPRPGQTLRFKVVDEFGNRFDVNNCSICYHWVTSRPQEPAVFSADYRGCHVLEKDGRFHLRVFMEAVLPNGRVDVAQDATLICPKPDPSRTLDSQLAPPAMFSVSTPQTLSFLPTSGHTSQGSGHAFPSPLDPGHSSVHPTPALPSPGPGPTLATLAQPHWGTLEHWDVNKRDYIGTHLSQEQCQVASGHLPCIVRRTSKEACQQAGCCYDNTREVPCYYGNTATVQCFRDGYFVLVVSQEMALTHRITLANIHLAYAPTSCSPTQHTEAFVVFYFPLTHCGTTMQVAGDQLIYENWLVSGIHIQKGPQGSITRDSTFQLHVRCVFNASDFLPIQASIFPPPSPAPMTQPGPLRLELRIAKDETFSSYYGEDDYPIVRLLREPVHVEVRLLQRTDPNLVLLLHQCWGAPSANPFQQPQWPILSDGCPFKGDSYRTQMVALDGATPFQSHYQRFTVATFALLDSGSQRALRGLVYLFCSTSACHTSGLETCSTACSTGTTRQ
B2: HA-tagged wild-type human ZP1 [human] / MYC-tagged human wild-type ZP3 [human] (parent)
chain 1: B1 chain 2
chain 2: B1 chain 1

Variants of: B1
Test: co-IP (IP: MYC as labelled in the image, blot anti-HA), densitometry
Settings: with HA-tagged wild-type human ZP1 [human]; HeLa cells; mutant lane co-transfected with MYC-ZP3WT + MYC-ZP3A134T + HA-ZP1 (imitating heterozygous state); parent lane MYC-ZP3WT + HA-ZP1; parent: 1; read off a plot; scale: relative protein level

Variant	response
chain 1 A112T	0.87

Variants of: B2
Test: co-IP (IP: anti-HA, blot anti-MYC), densitometry
Settings: with MYC-tagged human wild-type ZP3 [human]; HeLa cells; mutant lane co-transfected with HA-ZP1WT + HA-ZP1R109H + MYC-ZP3 (imitating heterozygous state); parent lane HA-ZP1WT + MYC-ZP3; parent: 1; read off a plot; scale: relative protein level

Variant	response
chain 1 R84H	0.22

Source: publication PMC7412702
